The results in this text go back to patent publication US20140274782A1, “AFFINITY REAGENTS AND METHODS FOR DETECTION, PURIFICATION, AND PROTEOMIC ANALYSIS OF METHYLATED PROTEINS” (The Board of Trustees of the Leland Stanford Junior …, priority 2013, published 2014).

One assay deals with 3×MBT domain of L3MBTL1. Description: Triple SILAC pull-down, 3xMBT/3xMBTD355N ratio (cytoplasmic, nuclear and chromatin fractions of 293T cells).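 As to all read-outs here: proteins quantified with MaxQuant, requiring at least two unique peptides and quantification in both label directions, normalized to the mean of proteins from a digested loading control.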 It counts as binding, human. The settings on record: SILAC ratio; for Protein Ratios 3xMBT/D355N: pull-down by 3xMBT vs 3xMBTD355N, 293T cells.
Another assay deals with T1, G9a and GLP (Homo sapiens, UniProt Q96KQ7+Q9H9B1).
T1 sequence (Q96KQ7 2-1210 limits assumed): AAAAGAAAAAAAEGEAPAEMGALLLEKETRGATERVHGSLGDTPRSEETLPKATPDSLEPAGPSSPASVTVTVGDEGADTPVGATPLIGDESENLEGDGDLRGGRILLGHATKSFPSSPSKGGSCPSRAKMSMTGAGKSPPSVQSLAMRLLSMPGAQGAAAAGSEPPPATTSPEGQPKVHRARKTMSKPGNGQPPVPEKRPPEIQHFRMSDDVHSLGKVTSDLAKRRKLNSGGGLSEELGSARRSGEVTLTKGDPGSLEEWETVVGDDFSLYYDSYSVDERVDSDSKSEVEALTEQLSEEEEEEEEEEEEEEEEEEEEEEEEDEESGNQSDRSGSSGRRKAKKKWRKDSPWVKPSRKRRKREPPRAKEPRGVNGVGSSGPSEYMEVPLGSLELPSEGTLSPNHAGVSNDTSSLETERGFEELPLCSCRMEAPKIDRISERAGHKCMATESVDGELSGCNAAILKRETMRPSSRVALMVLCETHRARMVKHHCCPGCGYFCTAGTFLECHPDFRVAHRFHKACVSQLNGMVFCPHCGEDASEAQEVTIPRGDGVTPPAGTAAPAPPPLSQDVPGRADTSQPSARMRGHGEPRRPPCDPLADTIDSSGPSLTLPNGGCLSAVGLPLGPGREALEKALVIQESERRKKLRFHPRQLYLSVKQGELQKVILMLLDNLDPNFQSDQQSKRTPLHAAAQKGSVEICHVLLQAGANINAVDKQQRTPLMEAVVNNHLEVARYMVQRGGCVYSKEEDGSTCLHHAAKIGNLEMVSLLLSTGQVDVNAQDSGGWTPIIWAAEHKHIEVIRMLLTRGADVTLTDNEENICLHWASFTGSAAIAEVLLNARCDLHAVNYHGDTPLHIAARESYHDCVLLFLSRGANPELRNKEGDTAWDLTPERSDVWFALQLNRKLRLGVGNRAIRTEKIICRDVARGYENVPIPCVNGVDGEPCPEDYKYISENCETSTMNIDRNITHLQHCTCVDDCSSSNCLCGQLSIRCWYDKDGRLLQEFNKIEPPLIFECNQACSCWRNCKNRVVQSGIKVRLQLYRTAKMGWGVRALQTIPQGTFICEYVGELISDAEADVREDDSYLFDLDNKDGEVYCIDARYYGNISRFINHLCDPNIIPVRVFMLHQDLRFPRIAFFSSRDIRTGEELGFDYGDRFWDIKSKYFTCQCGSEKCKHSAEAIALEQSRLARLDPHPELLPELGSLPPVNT
T1 sequence (Q9H9B1 2-1298 limits assumed): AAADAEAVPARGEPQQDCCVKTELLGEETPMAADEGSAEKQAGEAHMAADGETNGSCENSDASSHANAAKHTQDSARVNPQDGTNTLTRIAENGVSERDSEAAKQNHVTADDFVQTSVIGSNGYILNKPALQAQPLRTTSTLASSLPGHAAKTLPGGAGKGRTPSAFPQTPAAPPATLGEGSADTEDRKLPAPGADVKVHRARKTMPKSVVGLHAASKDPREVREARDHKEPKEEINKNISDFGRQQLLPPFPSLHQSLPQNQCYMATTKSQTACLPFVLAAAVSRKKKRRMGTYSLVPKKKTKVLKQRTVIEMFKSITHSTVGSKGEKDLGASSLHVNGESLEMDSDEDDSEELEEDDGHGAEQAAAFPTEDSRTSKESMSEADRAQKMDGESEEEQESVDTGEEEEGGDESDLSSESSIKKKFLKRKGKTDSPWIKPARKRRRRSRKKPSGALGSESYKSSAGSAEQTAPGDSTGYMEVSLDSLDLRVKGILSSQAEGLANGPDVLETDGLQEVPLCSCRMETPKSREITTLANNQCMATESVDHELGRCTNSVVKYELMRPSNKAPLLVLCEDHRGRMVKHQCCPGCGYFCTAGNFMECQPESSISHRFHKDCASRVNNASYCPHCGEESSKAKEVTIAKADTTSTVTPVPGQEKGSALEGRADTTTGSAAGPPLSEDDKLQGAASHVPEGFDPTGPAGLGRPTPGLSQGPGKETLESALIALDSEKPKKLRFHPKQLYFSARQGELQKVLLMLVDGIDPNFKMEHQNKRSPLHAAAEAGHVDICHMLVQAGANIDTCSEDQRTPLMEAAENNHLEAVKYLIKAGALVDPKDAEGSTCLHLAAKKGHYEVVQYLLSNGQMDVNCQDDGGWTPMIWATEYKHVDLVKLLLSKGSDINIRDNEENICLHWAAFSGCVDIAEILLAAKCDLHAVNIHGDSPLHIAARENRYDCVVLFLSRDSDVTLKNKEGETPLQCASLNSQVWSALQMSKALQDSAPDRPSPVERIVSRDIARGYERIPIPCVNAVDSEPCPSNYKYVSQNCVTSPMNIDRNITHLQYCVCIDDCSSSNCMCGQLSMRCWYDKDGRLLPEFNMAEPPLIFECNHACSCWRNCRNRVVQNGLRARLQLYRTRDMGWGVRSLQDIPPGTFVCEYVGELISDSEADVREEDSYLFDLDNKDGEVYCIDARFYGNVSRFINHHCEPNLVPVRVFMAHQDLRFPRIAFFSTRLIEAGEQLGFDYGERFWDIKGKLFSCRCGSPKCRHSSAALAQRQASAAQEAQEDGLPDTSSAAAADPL
As to the kind of experiment: Triple SILAC pull-down after UNC0638 treatment of 293T cells, DMSO/UNC0638 ratio of protein captured by 3×MBT.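 As to all read-outs here: mass spectrometry (Q-Exactive) SILAC quantitation, DMSO/UNC0638 ratio computed after subtracting 3×MBTD355N mutant pull-down background, only proteins with at least twofold 3×MBT over mutant signal considered.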 The assay is classed as cell-based. On the set-up: cells were treated for 24 hours with UNC0638 at 2.5 μM or DMSO vehicle control; endogenous in cells; host or cells: HEK 293T. Conditions: for Protein Ratios DMSO/UNC0638: SILAC ratio of protein captured by 3xMBT, 293T cells treated 24 hours with UNC0638 at 2.5 μM or DMSO.

B1: Cleavage and polyadenylation specificity factor subunit 2 (protein, UniProt Q9P2I0 1-782, looked up)
Cleavage and polyadenylation …: MTSIIKLTTLSGVQEESALCYLLQVDEFRFLLDCGWDEHFSMDIIDSLRKHVHQIDAVLLSHPDPLHLGALPYAVGKLGLNCAIYATIPVYKMGQMFMYDLYQSRHNTEDFTLFTLDDVDAAFDKIQQLKFSQIVNLKGKGHGLSITPLPAGHMIGGTIWKIVKDGEEEIVYAVDFNHKREIHLNGCSLEMLSRPSLLITDSFNATYVQPRRKQRDEQLLTNVLETLRGDGNVLIAVDTAGRVLELAQLLDQIWRTKDAGLGVYSLALLNNVSYNVVEFSKSQVEWMSDKLMRCFEDKRNNPFQFRHLSLCHGLSDLARVPSPKVVLASQPDLECGFSRDLFIQWCQDPKNSIILTYRTTPGTLARFLIDNPSEKITEIELRKRVKLEGKELEEYLEKEKLKKEAAKKLEQSKEADIDSSDESDIEEDIDQPSAHKTKHDLMMKGEGSRKGSFFKQAKKSYPMFPAPEERIKWDEYGEIIKPEDFLVPELQATEEEKSKLESGLTNGDEPMDQDLSDVPTKCISTTESIEIKARVTYIDYEGRSDGDSIKKIINQMKPRQLIIVHGPPEASQDLAECCRAFGGKDIKVYMPKLHETVDATSETHIYQVRLKDSLVSSLQFCKAKDAELAWIDGVLDMRVSKVDTGVILEEGELKDDGEDSEMQVEAPSDSSVIAQQKAMKSLFGDDEKETGEESEIIPTLEPLPPHEVPGHQSVFMNEPRLSDFKQVLLREGIQAEFVGGVLVCNNQVAVRRTETGRIGLEGCLCQDFYRIRDLLYEQYAIV
For B1, the “Protein Ratios 3xMBT/D355N” value in the assay with 3×MBT domain of L3MBTL1 is listed as 8.1. Besides, the “Protein Ratios DMSO/UNC0638” value with G9a and GLP amounted to 3.1.

B2: Peroxiredoxin-2 (protein, UniProt P32119 2-198, looked up)
Peroxiredoxin-2: ASGNARIGKPAPDFKATAVVDGAFKEVKLSDYKGKYVVLFFYPLDFTFVCPTEIIAFSNRAEDFRKLGCEVLGVSVDSQFTHLAWINTPRKEGGLGPLNIPLLADVTRRLSEDYGVLKTDEGIAYRGLFIIDGKGVLRQITVNDLPVGRSVDEALRLVQAFQYTDEHGEVCPAGWKPGSDTIKPNVDDSKEYFSKHN
For the molecule B2, the “Protein Ratios 3xMBT/D355N” value with 3×MBT domain of L3MBTL1 is reported as 8.6. In the assay with G9a and GLP, the “Protein Ratios DMSO/UNC0638” value was 2.3.

B3: Metastasis-associated protein 1 (protein)
chain: MAANMYRVGDYVYFENSSSNPYLIRRIEELNKTANGNVEAKVVCFYRRRDISSTLIALADKHATLSVCYKAGPGADNGEEGEIEEEMENPEMVDLPEKLKHQLRHRELFLSRQLESLPATHIRGKCSVTLLNETESLKSYLEREDFFFYSLVYDPQQKTLLADKGEIRVGNRYQADITDLLKEGEEDGRDQSRLETQVWEAHNPLTDKQIDQFLVVARSVGTFARALDCSSSVRQPSLHMSAAAASRDITLFHAMDTLHKNIYDISKAISALVPQGGPVLCRDEMEEWSASEANLFEEALEKYGKDFTDIQQDFLPWKSLTSIIEYYYMWKTTDRYVQQKRLKAAEAESKLKQVYIPNYNKPNPNQISVNNVKAGVVNGTGAPGQSPGAGRACESCYTTQSYQWYSWGPPNMQCRLCASCWTYWKKYGGLKMPTRLDGERPGPNRSNMSPHGLPARSSGSPKFAMKTRQAFYLHTTKLTRIARRLCREILRPWHAARHPYLPINSAAIKAECTARLPEASQSPLVLKQAVRKPLEAVLRYLETHPRPPKPDPVKSVSSVLSSLTPAKVAPVINNGSPTILGKRSYEQHNGVDGNMKKRLLMPSRGLANHGQARHMGPSRNLLLNGKSYPTKVRLIRGGSLPPVKRRRMNWIDAPDDVFYMATEETRKIRKLLSSSETKRAARRPYKPIALRQSQALPPRPPPPAPVNDEPIVIED
As to B3, the “3xMBT/D355N UNC Heavy” value with 3×MBT domain of L3MBTL1 (pull-down 3xMBT vs 3xMBTD355N, experiment with UNC0638 in heavy SILAC media) is listed as 0.90 log base 2. Moreover, the “3xMBT/D355N UNC Light” value with 3×MBT domain of L3MBTL1 (pull-down 3xMBT vs 3xMBTD355N, experiment with UNC0638 in light SILAC media) amounted to 4.28 log base 2. Further, the “Protein Ratios 3xMBT/D355N” value in the assay with 3×MBT domain of L3MBTL1 came out at 6.0. The “Relative to UNC0638 UNC Heavy” value in the assay with G9a and GLP (SILAC ratio DMSO/UNC0638 of protein pulled down with 3xMBT, UNC0638 in heavy SILAC media) worked out at 0.36 log base 2. In addition, the “Relative to UNC0638 UNC Light” value with G9a and GLP (SILAC ratio DMSO/UNC0638 of protein pulled down with 3xMBT, UNC0638 in light SILAC media) is on record as 0.56 log base 2. Further, in the assay with G9a and GLP, the “Protein Ratios DMSO/UNC0638” value worked out at 1.4. In addition, the “Relative to UNC0638 Average” value with G9a and GLP (average of UNC Light and UNC Heavy experiments) is given as 0.46 log base 2. The “Candidate G9a/GLP target” value with G9a and GLP (reduced association with 3xMBT after UNC0638 treatment) is reported as “✓”.
